35 variants from the Human Domainome abundance scans (Beltran et al. 2025) can be followed below.

± gives the uncertainty stated by the source.

First the molecules themselves.
B1: POU domain, class 3, transcription factor 1, residues 247 to 324; numbered along this chain, Q03052 (parent)
chain: EDAPSSDDLEQFAKQFKQRRIKLGFTQADVGLALGTLYGNVFSQTTICRFEALQLSFKNMCKLKPLLNKWLEETDSSS

The data set covers variants of B1. In words: abundance fitness (aPCA) (normalised: wild type 0, dead -1); higher = more abundant; growth selection in yeast, the domain comes from the species named. The note with it: Homo sapiens.
On to EDAPSSDDLEQFAKQFKQRRIKLGFTQADVGLALGTLYGNVFSQTTICRFEALQLSFMNMCKLKPLLNKWLEETDSSS, for which the abundance fitness is -0.024 ± 0.095.

Regarding EDAPSSDDLEQFAKQFKQRRIKLGFTQADVGLALGTLYGNVFSQTTICRFEALQLSFHNMCKLKPLLNKWLEETDSSS, the abundance fitness was -0.07 ± 0.13.

For the variant EDAPSSDDLEQFAKQFKQRRIKLGFTQADVGLALGTLYGNVFSQTTICRFEALQLSFFNMCKLKPLLNKWLEETDSSS, the abundance fitness is -0.433 ± 0.35.

Turning to EDAPSSDDLEQFAKQFKQRRIKLGFTQADVGLALGTLYGNVFSQTTICRFEALQLSTKNMCKLKPLLNKWLEETDSSS, the abundance fitness is -0.047 ± 0.091.

In the case of EDAPSSDDLEQFAKQFKQRRIKLGFTQADVGLALGTLYGNVFSQTTICRFEALQLSCKNMCKLKPLLNKWLEETDSSS, the abundance fitness is -0.394 ± 0.14.

As to EDAPSSDDLEQFAKQFKQRRIKLGFTQADVGLALGTLYGNVFSQTTICRFEALQLSPKNMCKLKPLLNKWLEETDSSS, the abundance fitness is -0.014 ± 0.084.

In the case of EDAPSSDDLEQFAKQFKQRRIKLGFTQADVGLALGTLYGNVFSQTTICRFEALQLSAKNMCKLKPLLNKWLEETDSSS, the abundance fitness was -0.142 ± 0.064.

In the case of EDAPSSDDLEQFAKQFKQRRIKLGFTQADVGLALGTLYGNVFSQTTICRFEALQLSHKNMCKLKPLLNKWLEETDSSS, the abundance fitness turned out to be 0.031 ± 0.13.

On to EDAPSSDDLEQFAKQFKQRRIKLGFTQADVGLALGTLYGNVFSQTTICRFEALQLSSKNMCKLKPLLNKWLEETDSSS, for which the abundance fitness was -0.152 ± 0.072.

Turning to EDAPSSDDLEQFAKQFKQRRIKLGFTQADVGLALGTLYGNVFSQTTICRFEALQLSRKNMCKLKPLLNKWLEETDSSS, the abundance fitness is -0.012 ± 0.046.

For EDAPSSDDLEQFAKQFKQRRIKLGFTQADVGLALGTLYGNVFSQTTICRFEALQLSWKNMCKLKPLLNKWLEETDSSS, the abundance fitness was -0.127 ± 0.066.

Take EDAPSSDDLEQFAKQFKQRRIKLGFTQADVGLALGTLYGNVFSQTTICRFEALQLSGKNMCKLKPLLNKWLEETDSSS: the abundance fitness is -0.275 ± 0.051.

Turning to EDAPSSDDLEQFAKQFKQRRIKLGFTQADVGLALGTLYGNVFSQTTICRFEALQLSMKNMCKLKPLLNKWLEETDSSS, the abundance fitness was -0.048 ± 0.086.

For the variant EDAPSSDDLEQFAKQFKQRRIKLGFTQADVGLALGTLYGNVFSQTTICRFEALQLSLKNMCKLKPLLNKWLEETDSSS, the abundance fitness turned out to be 0.003 ± 0.062.

As for EDAPSSDDLEQFAKQFKQRRIKLGFTQADVGLALGTLYGNVFSQTTICRFEALQLSQKNMCKLKPLLNKWLEETDSSS, the abundance fitness was 0.015 ± 0.11.

EDAPSSDDLEQFAKQFKQRRIKLGFTQADVGLALGTLYGNVFSQTTICRFEALQLSYKNMCKLKPLLNKWLEETDSSS: the abundance fitness was determined as 0.37 ± 0.17.

With EDAPSSDDLEQFAKQFKQRRIKLGFTQADVGLALGTLYGNVFSQTTICRFEALQLSIKNMCKLKPLLNKWLEETDSSS, the abundance fitness is -0.273 ± 0.16.

On to EDAPSSDDLEQFAKQFKQRRIKLGFTQADVGLALGTLYGNVFSQTTICRFEALQLSVKNMCKLKPLLNKWLEETDSSS, for which the abundance fitness was -0.144 ± 0.057.

As for EDAPSSDDLEQFAKQFKQRRIKLGFTQADVGLALGTLYGNVFSQTTICRFEALQLSDKNMCKLKPLLNKWLEETDSSS, the abundance fitness is -0.063 ± 0.11.

On to EDAPSSDDLEQFAKQFKQRRIKLGFTQADVGLALGTLYGNVFSQTTICRFEALQLSKKNMCKLKPLLNKWLEETDSSS, for which the abundance fitness was 0.005 ± 0.094.

Regarding EDAPSSDDLEQFAKQFKQRRIKLGFTQADVGLALGTLYGNVFSQTTICRFEALQMSFKNMCKLKPLLNKWLEETDSSS, the abundance fitness was -0.132 ± 0.095.

Consider EDAPSSDDLEQFAKQFKQRRIKLGFTQADVGLALGTLYGNVFSQTTICRFEALQGSFKNMCKLKPLLNKWLEETDSSS, for which the abundance fitness was -0.514 ± 0.059.

Consider EDAPSSDDLEQFAKQFKQRRIKLGFTQADVGLALGTLYGNVFSQTTICRFEALQQSFKNMCKLKPLLNKWLEETDSSS, for which the abundance fitness was -0.645 ± 0.16.

Turning to EDAPSSDDLEQFAKQFKQRRIKLGFTQADVGLALGTLYGNVFSQTTICRFEALQTSFKNMCKLKPLLNKWLEETDSSS, the abundance fitness is -0.746 ± 0.15.

As for EDAPSSDDLEQFAKQFKQRRIKLGFTQADVGLALGTLYGNVFSQTTICRFEALQESFKNMCKLKPLLNKWLEETDSSS, the abundance fitness is -0.438 ± 0.085.

As for EDAPSSDDLEQFAKQFKQRRIKLGFTQADVGLALGTLYGNVFSQTTICRFEALQSSFKNMCKLKPLLNKWLEETDSSS, the abundance fitness is -0.323 ± 0.1.

For EDAPSSDDLEQFAKQFKQRRIKLGFTQADVGLALGTLYGNVFSQTTICRFEALQFSFKNMCKLKPLLNKWLEETDSSS, the abundance fitness is -0.311 ± 0.2.

For the variant EDAPSSDDLEQFAKQFKQRRIKLGFTQADVGLALGTLYGNVFSQTTICRFEALQYSFKNMCKLKPLLNKWLEETDSSS, the abundance fitness was -0.46 ± 0.2.

In the case of EDAPSSDDLEQFAKQFKQRRIKLGFTQADVGLALGTLYGNVFSQTTICRFEALQDSFKNMCKLKPLLNKWLEETDSSS, the abundance fitness is -0.479 ± 0.17.

Take EDAPSSDDLEQFAKQFKQRRIKLGFTQADVGLALGTLYGNVFSQTTICRFEALQNSFKNMCKLKPLLNKWLEETDSSS: the abundance fitness is -0.2 ± 0.17.

On to EDAPSSDDLEQFAKQFKQRRIKLGFTQADVGLALGTLYGNVFSQTTICRFEALQHSFKNMCKLKPLLNKWLEETDSSS, for which the abundance fitness is -0.359 ± 0.18.

Consider EDAPSSDDLEQFAKQFKQRRIKLGFTQADVGLALGTLYGNVFSQTTICRFEALQWSFKNMCKLKPLLNKWLEETDSSS, for which the abundance fitness was -0.764 ± 0.1.

As to EDAPSSDDLEQFAKQFKQRRIKLGFTQADVGLALGTLYGNVFSQTTICRFEALQVSFKNMCKLKPLLNKWLEETDSSS, the abundance fitness is -0.45 ± 0.087.

In the case of EDAPSSDDLEQFAKQFKQRRIKLGFTQADVGLALGTLYGNVFSQTTICRFEALQKSFKNMCKLKPLLNKWLEETDSSS, the abundance fitness was -0.535 ± 0.16.

Consider EDAPSSDDLEQFAKQFKQRRIKLGFTQADVGLALGTLYGNVFSQTTICRFEALQPSFKNMCKLKPLLNKWLEETDSSS, for which the abundance fitness is -0.867 ± 0.18.
